Data set [1] relates to N[C@@H](CCC[C@H](N)C(=O)O)C(=O)O. Description: purified protein, by the assay type. Particulars: other: reverse assay.
Data set [2] relates to N[C@@H](CCC(=O)O)C(=O)O. The data set can be described thus: purified protein, by the assay type. Particulars: other: forward assay.
A further data set relates to O=C(O)CCC(=O)C(=O)O. The data set can be described thus: purified protein, by the assay type. Particulars: other: reverse assay.
Data set [3] relates to O=C(O)C1=N[C@H](C(=O)O)CCC1. Description: purified protein, by the assay type. Particulars: other: forward assay.
In data set [4] the test system is N[C@@H](CCC(=O)O)C(=O)O. The data set can be described thus: Quantitative forward and reverse assays of purified LL-DAP transaminases (Example III). Format: biochemical, Desulfitobacterium hafniense DCB-2. The note with it: other: forward assay.
Protocol: (§1) This plasmid was transformed into E. coli BL21-CodonPlus®-RIPL for expression and purification of the recombinant protein.
(§2) For protein expression the E. coli strains were grown on LB at 37° C. to an OD600 nm of 0.5 and protein expression was then induced with 1 mM IPTG for 4 hr at 25° C. Cells were lysed by sonication in a solution of 50 mM sodium phosphate and 300 mM NaCl (pH 8.0). Metabolites in the extract were removed by buffer exchange using an Amicon Ultra 30,000 MWCO ultrafilter and sodium phosphate/NaCl buffer, and the concentrated soluble protein sample was used for measurement of enzyme activity as an initial assessment of enzyme function. When the recombinant protein was to be purified a larger cell culture was grown and lysed as described above, but the buffer exchange step was not carried out. […] The pure protein was then concentrated in an Amicon Ultra 30,000 MWCO ultrafilter, replacing the elution buffer with 100 mM HepesKOH, pH 7.6.
In data set [5] the test system is O=C(O)C1=N[C@H](C(=O)O)CCC1. Described as above. Particulars: other: forward assay. Format: biochemical, Desulfitobacterium hafniense DCB-2.
Protocol: as §1, §2

A word on the Km: it is the concentration of substrate that gives half-maximal velocity. For the substance “Chlamydia trachomatis LL-DAP aminotransferase CT390 (ct390), His-Tag fusion, SEQ ID NO: 9 (Chlamydia trachomatis D/UW-3/CX)”, the Km in data set [1] (pH 7.5, 30° C., apparent Km) is 20 µM; in the data set with N[C@@H](CCC(=O)O)C(=O)O [2] (pH 7.5, 30° C., apparent Km), 1000 µM; in the data set on O=C(O)CCC(=O)C(=O)O (pH 7.5, 30° C., apparent Km, pH 7.5, 30.0 °C) it was 650 µM; in data set [3] (pH 7.5, 30° C., apparent Km), 200 µM.

Consider “Desulfitobacterium hafniense LL-DAP transaminase Dhaf_3890 (Desulfitobacterium hafniense DCB-2)”, for which the Km was 800 µM with N[C@@H](CCC(=O)O)C(=O)O [4], 70 µM in data set [5], 41 µM in data set [1] and 300 µM in the data set with O=C(O)CCC(=O)C(=O)O.

On to “Methanothermobacter thermautotrophicus LL-DAP transaminase MTH52 (Methanothermobacter thermautotrophicus str. Delta H)”, for which the Km in data set [1] worked out at 30 µM; in the data set on N[C@@H](CCC(=O)O)C(=O)O [2], 3000 µM; in data set [3] it was 75 µM.

Take “Synechocystis sp. PCC 6803 LL-DAP transaminase sll0480 (Synechocystis sp. PCC 6803 substr. Kazusa)”: the Km in data set [1] worked out at 17 µM; in the data set with N[C@@H](CCC(=O)O)C(=O)O [2], 1500 µM; in the data set on O=C(O)CCC(=O)C(=O)O it was 310 µM; in data set [3], 13 µM.
